Entries after “also recorded” stand apart in the source; their conditions may differ. Read-outs that look alike come from different tables or passages of the source.
Legend:
[1] = tested on: ABA-inducible wheat Em promoter; assay: Em-GUS reporter transactivation in transiently transformed rice protoplasts; assay type: cell-based, Oryza sativa; details: for Synergy with exogenous ABA on Em-GUS expression: 100 μM ABA, 16 h; for Transactivation of Em-GUS expression by overexpressed effector: effector overexpressed alone, average of four replicate transformations
Experimental: Embryonic rice (Oryza sativa) callus cultures (Radon 6 from the International Rice Research Institute, Los Bafios, Phillipines) were obtained. Embryonic rice callus cultures were grown as suspensions in liquid culture as well as on phytagel plates containing MS medium supplemented with 2.0 mg/L 2,4-D. Cultures were propagated and digested for making protoplasts as previously described except that 10 mM HEPES (Sigma, St. Louis, Mo., USA), pH 5.6, was substituted for phosphate in the Krens'F medium, and 2% (weight/volume; w/v) cellulase YC, 0.35% (w/v) macerozyme, and 0.1% (w/v) pectolyase Y23 were used for overnight digestion (Karlan Research Products, Santa Rosa, CA, USA). Protoplasts were transformed with various mixtures of DNA reporter and effector constructs using polyethylene glycol precipitation. Transformed protoplasts were incubated with or without 100 μM ABA for 16 h in the dark in Krens solution before quantifying β-glucuronidase (GUS) and luciferase (LUC) reporter enzyme activities as previously described. ABA was dissolved and stored in absolute ethanol at −20° C. as a 0.1 M stock solution. Prior to use, required dilutions of ABA were made in Krens solution, and control samples received the same volume of solvent as in ABA treatments.
(§1) Plasmid pBM207 contains the wheat (Triticum aestivum) Early Methionine-labeled (Em) promoter driving the expression of GUS, encoded by uida from Escherichia coli. Plasmid pDH359 contains ABI5 cDNA driven by Ubiquitin promoter. Plasmid pCR349.13S contains the 35S promoter driving the VP1 sense cDNA. Plasmid pDirect2.6 contains the Ubi promoter in a reverse orientation and was used as control construct to balance the total amount of input plasmid DNA between various treatments. Plasmid pAHC 18 contains the Ubi promoter driving firefly (Photinus pyralis) LUC cDNA and was included in transformations to provide an internal reference for non-ABA-inducible transient transcription in reporter enzyme assays. ABF1-ABF4, AREB3, and DPBF4 were amplified by PCR using gene-specific primers from an Arabidopsis cDNA library (Minet et al. Plant J. 2:417 (1992)) and were cloned into plasmid pDH349 (Gampala et al. J. Biol. Chem. 277: 1689 (2002)) containing the maize Ubiquitin promoter and nopaline synthase 3′ termination signals.
Simultaneously, it has been shown that ABF2, ABF3 and ABF4 overexpression in transgenic Arabidopsis results in ABA hypersensitivity and other ABA-associated phenotypes such as altered ABA-inducible gene expression and glucose signaling, reduced transpiration, and enhanced drought tolerance. The functional roles of the ABI5-like family members ABF1-ABF4 in regulation of ABA-inducible gene expression in rice protoplasts were tested and the results are shown in FIG. 1. […] Protoplasts were transformed with Em-GUS and a “dummy” effector construct (pD2.6 containing only the Ubiquitin promoter used to drive effector expression) or co-transformed with a Ubi-ABF construct and treated with or without 100 μM ABA. The values shown in FIG. 1A are the average (±S.E.M.) of four replicate transformations.
Rice protoplasts were transformed with either Em-GUS alone or in pairwise combinations of Ubi-ABF3, Ubi-ABI5, or 35S-VP1. The values in FIG. 1B are the average (±S.E.M.) of four replicate transformations. ABF3 is a related member of the ABI5-family of bZIP transcription factors.

[2] = tested on: ABA-inducible wheat Em promoter; assay: Em-GUS reporter transactivation in transiently transformed maize mesophyll protoplasts; assay type: cell-based; details: for Transactivation of Em-GUS expression by overexpressed effector: effector overexpressed alone
Experimental: Plant Materials. Maize mesophyll protoplasts were isolated from 20-hr illuminated leaves of 10 day old maize seedlings that had been kept in the dark at 25° C. The middle part of the second leaves (about 6 cm in length) was cut into 0.5 mm strips with a razor blade and digested in an enzyme solution containing 1% (w/v) cellulose RS, 0.1% (w/v) macerozyme R10 (Yakult Honsha, Nishinomiya, Japan), 0.6 M mannitol, 10 mM MES (pH 5.7), 1 mM CaCl2, 1 mM MgCl2, 10 mM β-mercaptoethanol, and 0.1% BSA (w/v) for 3 hr at room temperature. Protoplasts were released by shaking on a rotary shaker at 80 rpm for 10 min and were filtered through a 70 μm nylon filter. Protoplasts were collected by centrifugation at 100 g for 2 min, washed in cold 0.6 M mannitol solution, centrifuged, and resuspended at 2×10^6/mL in cold 0.6 M mannitol. Electroporation conditions were 400 V/cm, 200 μF, 10 msec, and two pulses with a Biorad GenePulser apparatus. Each sample contained 5×10^4 protoplasts and about 50 μg DNA in 0.3 mL of 0.6 M mannitol and 20 mM KCl.
as §1
The values in FIG. 2 are the average (±S.E.M.) of four replicate transformations.
To test the involvement of ABI3-Like B3 domain transcription factors in ABA signaling, ABA-inducible reporter gene transactivation by the B3 domain-containing RAV2 was assayed in maize mesophyll protoplasts transiently co-transformed with a full length cDNA under transcriptional control of the Ubiquitin promoter. Activation of Em-GUS reporter gene expression by RAV2, relative to non-ABA inducible Ubi-LUC reference reporter as internal control, and functional interactions of RAV2 with VP1, ABI5, and the ABI5-Like ABF3 were compared in protoplasts treated with or without 100 uM ABA (see FIG. 3).

ABI5: Arabidopsis basic leucine zipper (bZIP) domain transcription factor, At2g36270, SEQ ID NO 5 and 6
Synergy with exogenous ABA on Em-GUS expression [1]: acted in synergy with ABA
Transactivation of Em-GUS expression by overexpressed effector [1]: transactivated the Em promoter
Synergy with co-transformed VP1 on Em-GUS expression [2]: can synergize with co-transformed VP1
Synergy with exogenous ABA on Em-GUS expression [2]: synergize with exogenous ABA
Transactivation of Em-GUS expression by overexpressed effector ([2]; maize mesophyll protoplasts): sufficient for transactivation of the Em promoter; also recorded: sufficient for specific Em-GUS transactivation; also recorded: sufficient to transactivate Em-GUS expression

B1: RAV2: Arabidopsis ABI3-Like B3 domain transcription factor, At1g68840, SEQ ID NO 3 and 4 (protein, listed as Arabidopsis thaliana)
chain: MDSSCIDEISSSTSESFSATTAKKLSPPPAAALRLYRMGSGGSSVVLDPENGLETESRKLPSSKYKGVVPQPNGRWGAQIYEKHQRVWLGTFNEQEEAARSYDIAACRFRGRDAVVNFKNVLEDGDLAFLEAHSKAEIVDMLRKHTYADELEQNNKRQLFLSVDANGKRNGSSTTQNDKVLKTREVLFEKAVTPSDVGKLNRLVIPKQHAEKHFPLPSPSPAVTKGVLINFEDVNGKVWRFRYSYWNSSQSYVLTKGWSRFVKEKNLRAGDVVTFERSTGLERQLYIDWKVRSGPRENPVQVVVRLFGVDIFNVTTVKPNDVVAVCGGKRSRDVDDMFALRCSKKQAIINAL
Effect of ABA on synergism with VP1 [2]: enhanced by ABA
Synergy with ABF3 on Em-GUS expression [2]: synergizes; also recorded: interacts synergistically
Synergy with ABI5 on Em-GUS expression [2]: synergizes; also recorded: interacts synergistically
Synergy with VP1 on Em-GUS expression [2]: act synergistically to activate Em-GUS expression; also recorded: interacts synergistically
Effect of co-transformed ABA-INSENSITIVE-1 dominant negative allele on transactivation ([2]; maize mesophyll protoplasts, data not shown): antagonized
Transactivation of Em-GUS expression by overexpressed effector ([2]; maize mesophyll protoplasts): sufficient for specific Em-GUS transactivation

B2: DPBF4/EEL: Arabidopsis ABI5-like bZIP transcription factor, Enhanced Em Level, At2g41070 (protein, listed as Arabidopsis thaliana)
chain: MGSIRGNIEEPISQSLTRQNSLYSLKLHEVQTHLGSSGKPLGSMNLDELLKTVLPPAEEGLVRQGSLTLPRDLSKKTVDEVWRDIQQDKNGNGTSTTTTHKQPTLGEITLEDLLLRAGVVTETVVPQENVVNIASNGQWVEYHHQPQQQQGFMTYPVCEMQDMVMMGGLSDTPQAPGRKRVAGEIVEKTVERRQKRMIKNRESAARSRARKQAYTHELEIKVSRLEEENEKLRRLKEVEKILPSEPPPDPKWKLRRTNSASL
Synergy with co-transformed VP1 on Em-GUS expression ([2]; maize mesophyll protoplasts, co-transformed with VP1): some antagonism of ABA inducible Em-GUS expression and not
Transactivation of Em-GUS expression by overexpressed effector ([2]; maize mesophyll protoplasts): sufficient to transactivate Em-GUS expression
Synergy with exogenous ABA on Em-GUS expression ([2]; maize mesophyll protoplasts, exogenous ABA): synergize with exogenous ABA

B3: AREB3: Arabidopsis ABI5-like bZIP transcription factor, At3g56850 (protein, listed as Arabidopsis thaliana)
chain: MDSQRGIVEQAKSQSLNRQSSLYSLTLDEVQNHLGSSGKALGSMNLDELLKSVCSVEANQPSSMAVNGGAAAQEGLSRQGSLTLPRDLSKKTVDEVWKDIQQNKNGGSAHERRDKQPTLGEMTLEDLLLKAGVVTETIPGSNHDGPVGGGSAGSGAGLGQNITQVGPWIQYHQLPSMPQPQAFMPYPVSDMQAMVSQSSLMGGLSDTQTPGRKRVASGEVVEKTVERRQKRMIKNRESAARSRARKQAYTHELEIKVSRLEEENERLRKQKEVEKILPSVPPPDPKRQLRRTSSAPF
Synergy with co-transformed VP1 on Em-GUS expression [2]: no functional interactions with VP1 and not
Synergy with exogenous ABA on Em-GUS expression [2]: synergize with exogenous ABA
Transactivation of Em-GUS expression by overexpressed effector ([2]; maize mesophyll protoplasts): sufficient to transactivate Em-GUS expression

B4: VP1: maize VIVIPAROUS-1 B3-domain transcription factor, SEQ ID NO 1 and 2, expressed from 35S promoter (protein)
chain: MEASSGSSPPHSQENPPEHGGDMGGAPAEEIGGEAADDFMFAEDTFPSLPDFPCLSSPSSSTFSSNSSSNSSSAYTNTAGRAGGEPSEPASAGEGFDALDDIDQLLDFASLSMPWDSEPFPGVSMMLENAMSAPPQPVGDGMSEEKAVPEGTTGGEEACMDASEGEELPRFFMEWLTSNRENISAEDLRGIRLRRSTIEAAAARLGGGRQGTMQLLKLILTWVQNHHLQRKRPRDVMEEEAGLHVQLPSPVANPPGYEFPAGGQDMAAGGGTSWMPHQQAFTPPAAYGGDAVYPSAAGQQYSFHQGPSTSSVVVNSQPFSPPPVGDMHGANMAWPQQYVPFPPPGASTGSYPMPQPFSPGFGGQYAGAGAGHLSVAPQRMAGVEASATKEARKKRMARQRRLSCLQQQRSQQLSLGQIQTSVHLQEPSPRSTHSGPVTPSAGGWGFWSPSSQQQVQNPLSKSNSSRAPPSSLEAAAAAPQTKPAPAGARQDDIHHRLAAASDKRQGAKADKNLRFLLQKVLKQSDVGSLGRIVLPKKEAEVHLPELKTRDGISIPMEDIGTSRVWNMRYRFWPNNKSRMYLLENTGEFVRSNELQEGDFIVIYSDVKSGKYLIRGVKVRPPPAQEQGSGSSGGGKHRPLCPAGPERAAAAGAPEDAVVDGVSGACKGRSPEGVRRVRQQGAGAMSQMAVSI
modifications: Zea mays
Synergy with exogenous ABA on Em-GUS expression [1]: acted in synergy with ABA
Transactivation of Em-GUS expression by overexpressed effector [1]: transactivated the Em promoter

From patent US20090083877A1, “Transcription Factors, DNA and Methods for Introduction of Value-Added Seed Traits and Stress Tolerance” (priority 2002, published 2009)
